Tests used:
[1] = molecular target: human Glucagon-Like Peptide-1 receptor (hGLP-1R) (Homo sapiens, UniProt P43220); experiment: hGLP-1-R functional cAMP assay
[2] = molecular target: T1, human glucagon receptor (hGcg-R) (Homo sapiens, UniProt P47871); experiment: hGcg-R functional cAMP assay; assay type: cell-based; conditions: geometric mean ± SEM
T1 construct: expressed in transfected cells; host or cells: 293HEK, plasmid phD, hygromycin selection

[3] = Stability in Co-Formulation with GLP-1R Agonist (dulaglutide); assay type: physicochemical; conditions: four weeks, dulaglutide 3 mg/mL
Experimental: Examples 1 and 3 are prepared and dialyzed against C6.5 (10 mM Citrate pH 6.5) using the same method as described above for preparation into T7 buffer. Compounds are formulated separately at 1 mg/mL peptide in buffer C6.5, C6.5M (10 mM Citrate, 46.4 mg/mL D-mannitol, pH 6.5), C6.5T (10 mM Citrate, 0.02% polysorbate-80, pH 6.5), and C6.5MT (10 mM Citrate, 46.4 mg/mL D-mannitol, 0.02% polysorbate-80, pH 6.5). A stock concentration of 46.5 mg/mL of dulaglutide in C6.5 is used to formulate dulaglutide at 3 mg/mL in C6.5 and C6.5MT. Co-formulations in C6.5MT are prepared having 3 mg/mL dulaglutide and 1 mg/mL Example 1, or 3 mg/mL dulaglutide and 1 mg/mL Example 3. Each formulated sample is transferred to three vials and maintained at 4° C., 25° C. and 40° C. Samples are assessed every two weeks for a total of four weeks. Samples are visually assessed for turbidity and phase separation. Stability is assessed by RP-HPLC and SEC-HPLC as described above. Both described HPLC methods give good separation of Example compounds and dulaglutide main peaks as well as all degradation peaks produced by stressing the sample at pH 9 and 40° C. for 3 days.

Compound | EC50 [1] | EC50 [2] | GLP-1-Fc Δ % Main Peak ([3]; RP-HPLC, C6.5, 25° C.) | GLP-1-Fc Δ % Main Peak ([3]; RP-HPLC, C6.5MT, 4° C.) | GLP-1-Fc Δ % Main Peak ([3]; RP-HPLC, C6.5MT, 25° C.) | GLP-1-Fc Δ % Main Peak ([3]; SEC-HPLC, C6.5, 4° C.) | GLP-1-Fc Δ % Main Peak ([3]; SEC-HPLC, C6.5, 25° C.) | GLP-1-Fc Δ % Main Peak ([3]; SEC-HPLC, C6.5, 40° C.) | GLP-1-Fc Δ % Main Peak ([3]; SEC-HPLC, C6.5MT, 4° C.) | GLP-1-Fc Δ % Main Peak ([3]; SEC-HPLC, C6.5MT, 25° C.) | GLP-1-Fc Δ % Main Peak ([3]; SEC-HPLC, C6.5MT, 40° C.)
dulaglutide | – | – | >−10% | −0.46% | −0.8% | 0.19% | −0.54% | >−10% | 0.29% | −0.87% | −0.83%

From patent US9764004B2 (Eli Lilly and Company, priority 2015, dated 2017)
